Test [1] concerns the target PBP4ΔD3 (PBP4 lacking domain 3), His-tagged (E. coli) (UniProt P24228). Description: AUC; sedimentation velocity, 45,000 rpm, 20°C, 25 mM HEPES/NaOH, 150 mM NaCl, pH 7.5, about 0.25 to 1.4 mg/ml; c(s) analysis.
Test [2] addresses EnvC, soluble version without the N-terminal 34 amino acid signal peptide (E. coli) (UniProt P37690). Description: MST; one protein fluorescently labelled (NT-647 dye) at a fixed concentration, two-fold serial dilution of unlabelled ligand over 16 samples; 25 mM HEPES/NaOH, 150 mM NaCl, 0.05% Triton X-100, pH 7.5; Monolith NT.115; apparent KD.
Test [3] deals with LpoA, soluble (LpoAΔ1–27) (E. coli) (UniProt P45464). Described as above.
Test [4] has as its target LpoA^N, N-terminal domain of LpoA (residues G28-T256) (E. coli) (UniProt P45464). The description is as above.
Test [5] addresses PBP4 (penicillin binding protein 4, DD-carboxy/endopeptidase), purified, untagged (E. coli) (UniProt P24228). In words: AUC; sedimentation velocity, 45,000 rpm, 20°C, 25 mM HEPES/NaOH, 150 mM NaCl, pH 7.5, about 0.25 to 1.4 mg/ml; c(s) analysis.
Test [6] deals with PBP4ΔD3 (PBP4 lacking domain 3), His-tagged (E. coli, UniProt P24228 21-477, PBP4Δ173–247 (domain 3)). Description: MST.
For test [7], the target named is T1, PBP4 (penicillin binding protein 4, DD-carboxy/endopeptidase), purified, untagged (E. coli, UniProt P24228 61-477).
T1 chain: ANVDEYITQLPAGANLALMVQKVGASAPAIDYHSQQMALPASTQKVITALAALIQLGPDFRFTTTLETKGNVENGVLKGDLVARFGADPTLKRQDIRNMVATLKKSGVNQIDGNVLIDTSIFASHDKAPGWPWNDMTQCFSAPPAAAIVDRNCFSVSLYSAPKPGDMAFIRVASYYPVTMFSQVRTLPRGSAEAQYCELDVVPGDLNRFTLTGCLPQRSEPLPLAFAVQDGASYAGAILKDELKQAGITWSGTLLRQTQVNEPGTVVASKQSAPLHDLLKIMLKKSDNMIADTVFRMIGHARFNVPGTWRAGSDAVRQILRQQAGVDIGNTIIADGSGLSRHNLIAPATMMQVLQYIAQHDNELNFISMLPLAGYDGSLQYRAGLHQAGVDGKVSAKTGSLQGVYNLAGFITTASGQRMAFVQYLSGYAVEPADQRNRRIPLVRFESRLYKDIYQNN
Description: MST.

Test [8] concerns the target T2, EnvC, soluble version without the N-terminal 34 amino acid signal peptide (E. coli, UniProt P37690 35-419).
T2 construct: EnvC of E. coli, soluble version without the N-terminal, 34 amino acid long, signal peptide; the text calls it full-length EnvC; In MST fluorescently labelled (Fl-EnvC) in some runs; also called full-length EnvC; Fl-EnvC; source: E. coli BL21(DE3) pET28a-His-EnvC, purified (HisTrap, thrombin, Superdex 200)
T2 sequence (looked up): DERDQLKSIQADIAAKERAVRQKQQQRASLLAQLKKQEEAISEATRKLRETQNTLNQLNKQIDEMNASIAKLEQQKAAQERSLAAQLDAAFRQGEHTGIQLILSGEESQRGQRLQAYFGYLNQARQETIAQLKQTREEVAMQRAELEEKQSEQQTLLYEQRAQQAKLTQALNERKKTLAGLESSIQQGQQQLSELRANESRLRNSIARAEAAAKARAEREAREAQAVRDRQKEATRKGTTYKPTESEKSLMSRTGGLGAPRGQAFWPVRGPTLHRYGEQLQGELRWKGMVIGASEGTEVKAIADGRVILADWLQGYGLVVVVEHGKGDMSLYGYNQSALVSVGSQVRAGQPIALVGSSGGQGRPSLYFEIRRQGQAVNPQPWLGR
Description: MST; one protein fluorescently labelled (NT-647 dye) at a fixed concentration, two-fold serial dilution of unlabelled ligand over 16 samples; 25 mM HEPES/NaOH, 150 mM NaCl, 0.05% Triton X-100, pH 7.5; Monolith NT.115; apparent KD. Particulars: both partners purified.

Test [9] addresses T2, EnvC, soluble version without the …. Description: pull-down; Ni-NTA beads; equimolar (1–2 μM) His-tagged and untagged proteins; 10 mM HEPES/NaOH, 10 mM MgCl2, 150 mM NaCl, 0.05% Triton X-100, pH 7.5, 4°C; washes with 30 mM imidazole; SDS-PAGE; His-NlpI also with PBP4 and EnvC together. Conditions: both partners purified.

The molecule “PBP4ΔD3 (PBP4 lacking domain 3), His-tagged (from UniProt P24228 21-477) (enzyme)” yielded a stoichiometry N in test [1] of 2. For the same molecule, the Kd in test [2] is above 5900 nM; in [3], 153 nM. In addition, in test [4], the fold decrease of app. KD against PBP4 was determined as 50 fold.
In [5], “PBP4 (penicillin binding protein 4, DD-carboxy/endopeptidase), purified, untagged (from UniProt P24228 61-477) (enzyme)” registered a stoichiometry N of 2. For the same molecule, the Kd came to 307 nM in test [2] and 315 nM in test [3].

B1: PBP1A, purified (full length His-PBP1A) (enzyme)
chain: MKFVKYFLILAVCCILLGAGSIYGLYRYIEPQLPDVATLKDVRLQIPMQIYSADGELIAQYGEKRRIPVTLDQIPPEMVKAFIATEDSRFYEHHGVDPVGIFRAASVALFSGHASQGASTITQQLARNFFLSPERTLMRKIKEVFLAIRIEQLLTKDEILELYLNKIYLGYRAYGVGAAAQVYFGKTVDQLTLNEMAVIAGLPKAPSTFNPLYSMDRAVARRNVVLSRMLDEGYITQQQFDQTRTEAINANYHAPEIAFSAPYLSEMVRQEMYNRYGESAYEDGYRIYTTITRKVQQAAQQAVRNNVLDYDMRHGYRGPANVLWKVGESAWDNNKITDTLKALPTYGPLLPAAVTSANPQQATAMLADGSTVALSMEGVRWARPYRSDTQQGPTPRKVTDVLQTGQQIWVRQVGDAWWLAQVPEVNSALVSINPQNGAVMALVGGFDFNQSKFNRATQALRQVGSNIKPFLYTAAMDKGLTLASMLNDVPISRWDASAGSDWQPKNSPPQYAGPIRLRQGLGQSKNVVMVRAMRAMGVDYAAEYLQRFGFPAQNIVHTESLALGSASFTPMQVARGYAVMANGGFLVDPWFISKIENDQGGVIFEAKPKVACPECDIPVIYGDTQKSNVLENNDVEDVAISREQQNVSVPMPQLEQANQALVAKTGAQEYAPHVINTPLAFLIKSALNTNIFGEPGWQGTGWRAGRDLQRRDIGGKTGTTNSSKDAWFSGYGPGVVTSVWIGFDDHRRNLGHTTASGAIKDQISGYEGGAKSAQPAWDAYMKAVLEGVPEQPLTPPPGIVTVNIDRSTGQLANGGNSREEYFIEGTQPTQQAVHEVGTTIIDNGEAQELF
Take B1: the values for the Kd in [6] and in [7] were 240 nM and 67 nM, respectively.

B2: LpoA^C, C-terminal domain of LpoA (residues N257-S678) (domain or fragment)
chain: NKIALLLPLNGQAAVFGRTIQQGFEAAKNIGTQPVAAQVAAAPAADVAEQPQPQTVDGVASPAQASVSDLTGEQPAAQPVPVSAPATSTAAVSAPANPSAELKIYDTSSQPLSQILSQVQQDGASIVVGPLLKNNVEELLKSNTPLNVLALNQPENIENRVNICYFALSPEDEARDAARHIRDQGKQAPLVLIPRSSLGDRVANAFAQEWQKLGGGTVLQQKFGSTSELRAGVNGGSGIALTGSPITLRATTDSGMTTNNPTLQTTPTDDQFTNNGGRVDAVYIVATPGEIAFIKPMIAMRNGSQSGATLYASSRSAQGTAGPDFRLEMEGLQYSEIPMLAGGNLPLMQQALSAVNNDYSLARMYAMGVDAWSLANHFSQMRQVQGFEINGNTGSLTANPDCVINRNLSWLQYQQGQVVPVS
For the molecule B2, the Kd in test [6] turned out to be 315 nM; in test [7], 226 nM.

B3: NlpI, soluble, as used in microscale thermophoresis (natural protein, E. coli, UniProt P0AFB1 19-294, looked up)
chain: CSNTSWRKSEVLAVPLQPTLQQEVILARMEQILASRALTDDERAQLLYERGVLYDSLGLRALARNDFSQALAIRPDMPEVFNYLGIYLTQAGNFDAAYEAFDSVLELDPTYNYAHLNRGIALYYGGRDKLAQDDLLAFYQDDPNDPFRSLWLYLAEQKLDEKQAKEVLKQHFEKSDKEQWGWNIVEFYLGNISEQTLMERLKADATDNTSLAEHLSETNFYLGKYYLSLGDLDSATALFKLAVANNVHNFVEHRYALLELSLLGQDQDDLAESDQQ
notes: NlpI, outer membrane lipoprotein of E. coli, 'Soluble NlpI construct'; In some MST runs fluorescently labelled (Fl-NlpI); also called Fl-NlpI; source: purified from overexpression strain according to published procedures [55]; (plasmid pET28a-His-NlpI)
As for B3, in test [7], the Kd worked out at 177 nM. In test [8], the binding result is “binds”.

B4: His-NlpI (oligo-histidine tagged soluble NlpI) (natural protein, E. coli, UniProt P0AFB1 19-294, looked up)
chain: B3 chain
notes: NlpI, outer membrane lipoprotein of E. coli, 'Soluble NlpI construct'; Bait on Ni-NTA beads; also called oligohistidine-tagged-NlpI; source: purified from overexpression strain according to published procedures [55]; (plasmid pET28a-His-NlpI); not shown: His, N-terminal, kept
B4: the binding result in [9] is “binds”.

B5: LpoA^N, N-terminal domain of LpoA (residues G28-T256) (domain or fragment)
chain: GTHTPDQSTAYMQGTAQADSAFYLQQMQQSSDDTRINWQLLAIRALVKEGKTGQAVELFNQLPQELNDAQRREKTLLAVEIKLAQKDFAGAQNLLAKITPADLEQNQQARYWQAKIDASQGRPSIDLLRALIAQEPLLGAKEKQQNIDATWQALSSMTQEQANTLVINADENILQGWLDLQRVWFDNRNDPDMMKAGIADWQKRYPNNPGAKMLPTQLVNVKAFKPAST
Take B5: the Kd was determined as 17 nM in test [6] and 954 nM in test [7].

Source of the values: article PMC9166362, “Early midcell localization of Escherichia coli PBP4 supports the function of peptidoglycan amidases” (PLoS Genetics, 2022).
